No end group written: not given here.
T1: C terminus of Hsc70 interacting protein (CHIP) (human, UniProt Q9UNE7 1-303)
T1 chain: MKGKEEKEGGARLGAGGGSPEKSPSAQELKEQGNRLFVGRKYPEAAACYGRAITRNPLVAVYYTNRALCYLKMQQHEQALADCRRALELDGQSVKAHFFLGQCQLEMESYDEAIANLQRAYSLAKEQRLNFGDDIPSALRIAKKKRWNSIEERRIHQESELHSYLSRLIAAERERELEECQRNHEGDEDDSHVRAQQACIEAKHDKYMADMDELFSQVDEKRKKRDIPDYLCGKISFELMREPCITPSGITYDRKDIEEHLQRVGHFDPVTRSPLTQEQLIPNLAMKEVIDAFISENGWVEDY


Legend:
[1] = target: T1, C terminus of Hsc70 interacting protein …; experiment: FP
[2] = target: DnaJB4 (human, UniProt Q9UDY4 1-337); experiment: FP
DnaJB4, sequence (Q9UDY4 whole entry): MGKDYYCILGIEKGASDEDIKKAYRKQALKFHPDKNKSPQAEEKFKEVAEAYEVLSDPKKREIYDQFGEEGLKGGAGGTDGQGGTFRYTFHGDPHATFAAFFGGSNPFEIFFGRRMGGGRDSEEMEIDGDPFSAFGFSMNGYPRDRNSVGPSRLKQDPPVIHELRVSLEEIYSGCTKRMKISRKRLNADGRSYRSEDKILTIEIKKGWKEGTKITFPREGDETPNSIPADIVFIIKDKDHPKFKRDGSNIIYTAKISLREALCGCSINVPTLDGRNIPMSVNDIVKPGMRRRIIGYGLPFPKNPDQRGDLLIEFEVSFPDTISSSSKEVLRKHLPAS

Binder	Kd [1]	Kd [2]
GSGPEIEEVD-OH (not fully specified (N-terminus); printed as FITC-Ahx-GSGPEIEEVD) [Hsp72 T636E tracer FITC-Ahx-GSGPEIEEVD]	5040 nM	1760 nM
GSGPTIEEVD-OH (not fully specified (N-terminus); printed as FITC-Ahx-GSGPTIEEVD) [Hsp72 tracer FITC-Ahx-GSGPTIEEVD]	1050 nM	

— publication PMC8913300 (2022)
